For experiment [1], the target named is T1, EMC3(T102C)-GFP, cysteine in loop 2 of EMC3 (human, UniProt Q9P0I2 1-261, T102C).
T1 sequence: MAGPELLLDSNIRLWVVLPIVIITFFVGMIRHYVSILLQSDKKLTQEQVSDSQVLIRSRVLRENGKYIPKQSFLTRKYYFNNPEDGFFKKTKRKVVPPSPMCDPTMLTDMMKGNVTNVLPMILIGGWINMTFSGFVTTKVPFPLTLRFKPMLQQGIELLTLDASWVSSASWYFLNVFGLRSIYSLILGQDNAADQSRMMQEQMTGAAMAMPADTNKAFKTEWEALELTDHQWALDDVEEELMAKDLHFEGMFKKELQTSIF
Description: cross-linking.

In experiment [2] the target is T2, ALFA-EMC7(M214C), cysteine in helix 2 (H2) of EMC7 (human, UniProt Q9NPA0 24-242, M214C).
T2 sequence: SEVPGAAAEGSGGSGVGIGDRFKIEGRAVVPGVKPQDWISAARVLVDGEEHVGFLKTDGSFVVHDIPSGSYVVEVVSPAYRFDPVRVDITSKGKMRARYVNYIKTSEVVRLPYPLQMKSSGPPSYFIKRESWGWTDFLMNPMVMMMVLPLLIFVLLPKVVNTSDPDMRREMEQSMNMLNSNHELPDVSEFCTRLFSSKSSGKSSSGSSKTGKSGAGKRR
Description: cross-linking.

B1: SQS(L401C): 3xFLAG-Sec61β(2-59, C39S)-SQS(378-end) with a cysteine at L401 in the TMD (other)
chain: PGPTPSGTNVGSSGRSPSKAVAARAAGSTVRQRKNASSGTRSAGRTTSAGTGGMWRFYSRSHYSPIYLSFVMLLAALSWQYCTTLSQVTEDYVQTGEH
modifications: 35S-methionine labelled
As to B1, the binding result in experiment [1] and in experiment [2] was “binds” each time.
